# Key:
# [1] = system: paratarg-specific paraprotein (patients' sera); experiment: Paraprotein binding to recombinant paratarg, stomatin family members and paratarg peptides/fragments (dot blot, ELISA, peptide spot analysis); design: species or system human; conditions: for recognition by paratarg-specific paraproteins / patients' serum: ELISA, Western blotting or peptide spot analysis
# Description: 100 ng of each recombinant protein were separated by SDS-PAGE and transferred to PVDF membrane (Millipore Immobilon) by semidry blotting. The membrane was blocked in TST/milk buffer (10% milk in 10 mM Tris/HCl, pH 7.5, 150 mM NaCl, 0.1% (v/v) Tween 20) overnight, washed and incubated for 1 h with serum in TST (paraprotein patients serum at a dilution of 1:10^8 and control patients serum at a dilution of 1:10^3). After three washings in TST, the membranes were incubated for 1 h at RT with goat anti-human IgG AP-coupled antibody (Dianova) diluted 1:5,000 in TST, subsequently washed in TST followed by AP-development.
# His6-tagged fusion proteins were spotted on nitrocellulose membranes. After spotting, the protein arrays were blocked, incubated and detected as described above.
# The epitopes recognized by the patients' paraproteins were identified as described before (Preuss et al, 2006). In brief: matrix-bound synthesized decamer peptides with 5 amino acids overlaps between every 2nd consecutive decamer covering the entire paratarg sequence were used to screen patients sera. Paratarg-specific paraproteins binding to the corresponding paratarg epitopes were visualized by ECL technique according to the suppliers' instructions (PIERCE, Rockford, USA). Finally, matrix stripes were photographed for documentation.
# Full-length paratarg was recombinantly expressed in HEK293 cells under control of CMV promoter introducing a FLAG tag at the C-terminus of the protein. Total cell extract was prepared and coated indirectly to Nunc maxisorb plates using anti-FLAG mAb (Sigma). Elisa was performed according standard protocols. Partially truncated paratarg fragments were processed accordingly.
# Paratarg fragments were obtained by PCR amplification using suitable primers and verified by sequencing. These fragments were subcloned into the vector and expressed as described before.
# [2] = system: paraproteins of serum pool #1 (MGUS/MM patients' sera); experiment: Serum profiling on high density protein arrays (paraprotein screening of hEx1 human fetal brain macroarray); assay type: binding; design: key: Paraprotein-binding quality/strength are ++, + and ±.; Paraprotein-binding quality/strength are ++, + and ±.; Paraprotein-binding quality/strength are ++, + and ±; conditions: serum pool #1 (n=114), each serum diluted 1:10^8
# Description: Screening analyses were performed on hEx1 high-density protein expression cDNA libraries, created in Hans Lehrach's laboratory at the Max Planck Institute for Molecular Genetics in Berlin (Germany) and obtained from the Reference Center of the German Human Genome Project (RZPD) (Bussow et al, 1998). These high-density filter membranes display proteins that were expressed from a modified pQE protein expression vector (Qiagen). This vector featured a hexahistidine tag, a T5 promoter and two lac operator sequences, which allowed repression during the growth phase by overexpression of the Lac repressor protein, and subsequent induction of protein expression with isopropyl-beta-D-thiogalactopyranoside (IPTG).
# High density protein arrays of the protein expression set of the hEx1 library were obtained from the German Resource Center for Genome Research (RZPD) and provided by Dr. Mahlknecht from our department. They consist of 37,200 independent clones derived from a human fetal brain cDNA expression library and were used for autoantibody detection. For serum profiling, the filters were blocked in 10% (w/v) non-fat, dry milk powder in TBST (TBS, 0.1% (v/v) Tween 20) at 4° C. overnight, washed twice in TBST, and incubated for 1 h with serum pool #1 at a dilution of 1:10^8 for each serum. Following three 30-min TBST washes and subsequent incubation with the secondary antibody (goat anti-human IgG biotinylated, Dianova, diluted 1:2.500) and Strep-PDX (1:15.000) in 2% (w/v) Milk/TBST, the filters were washed three times for 30 min in TBST. This was followed by detection using Pharmacia ECL system. Positive signals were localized according to the manufacturer's protocol. Corresponding clones were obtained from RZPD.
# In this study we screened a human high-density protein array containing 37,200 independent recombinant proteins derived from a human fetal brain expression library with sera obtained from patients with monoclonal gammopathy of undetermined significance (MGUS) and multiple myeloma (MM).
# The signal pattern obtained from the screening with the paraprotein pools at a dilution of 1:10^8 were compared with the patterns obtained from screening with the control sera from clinically healthy donors and to background incubations. […] 5′- and 3′-tag sequencing of these clones was performed, and their sequences were used for BLAST searches against public databases at NCBI.
# Using serum pool #1 (paraprotein type: 15 IgA, 88 IgG, 11 oligoclonal, n=114) we identified 14 putative paraprotein targets on the human protein filter array (FIG. 1, Tab. 1). […] Sequence searches and comparisons using the in-frame sequences identified five known proteins and one unknown gene product derived from chromosome 8.
recognition by paratarg-specific paraproteins / patients' serum [1],Signal-quality (paraprotein-binding quality/strength) [2],Molecule,further results
recognized,–,SLLASGRAP [paratarg amino acid region],–
recognized by patients' serum,–,SLLASGRAPRRASSG [15 amino acid region near the N-terminal end of paratarg],–
no signal,–,stomatin: recombinantly expressed human stomatin family member,–
no signal,–,SLP-1: recombinantly expressed human stomatin family member (protein) MLGRSGYRALPLGDFDRFQQSSFGFLGSQKGCLSPERGGVGTGADVPQSWPSCLCHGLISFLGFLLLLVTFPISGWFALKIVPTYERMIVFRLGRIRTPQGPGMVLLLPFIDSFQRVDLRTRAFNVPPCKLASKDGAVLSVGADVQFRIWDPVLSVMTVKDLNTATRMTAQNAMTKALLKRPLREIQMEKLKISDQLLLEINDVTRAWGLEVDRVELAVEAVLQPPQDSPAGPNLDSTLQQLALHFLGGSMNSMAGGAPSPGPADTVEMVSEVEPPAPQVGARSSPKQPLAEGLLTALQPFLSEALVSQVGACYQFNVVLPSGTQSAYFLDLTTGRGRVGHGVPDGIPDVVVEMAEADLRALLCRELRPLGAYMSGRLKVKGDLAMAMKLEAVLRALK,–
–,–,"paratarg: stomatin-like protein 2 (SLP-2), SEQ ID NO: 1, antigenic paraprotein target (protein, listed as Homo sapiens) MLARAARGTGALLLRGSLLASGRAPRRASSGLPRNTVVLFVPQQEAWVVERMGRFHRILEPGLNILIPVLDRIRYVQSLKEIVINVPEQSAVTLDNVTLQIDGVLYLRIMDPYKASYGVEDPEYAVTQLAQTTMRSELGKLSLDKVFRERESLNASIVDAINQAADCWGIRCLRYEIKDIHVPPRVKESMQMQVEAERRKRATVLESEGTRESAINVAEGKKQAQILASEAEKAEQINQAAGEASAVLAKAKAKAEAIRILAAALTQHNGDAAASLTVAEQYVSAFSKLAKDSNTILLPSNPGDVTSMVAQAMGVYGALTKAPVPGTPDSLSSGSSRDVQGTDASLDEELDRVKMS",serum dilution at which recognition was detectable ([1]; individual patient sera): 10^10; titer of paraprotein-containing sera reacting with the antigen ([1]; sera of more than two patients): > 10^8
–,++,"MPMGp800E08596: RZPD clone coding for paratarg (protein, left off: small tags and cut ends, RZPD clone coding for paratarg) MLARAARGTGALLLRGSLLASGRAPRRASSGLPRNTVVLFVPQQEAWVVERMGRFHRILEPGLNILIPVLDRIRYVQSLKEIVINVPEQSAVTLDNVTLQIDGVLYLRIMDPYKASYGVEDPEYAVTQLAQTTMRSELGKLSLDKVFRERESLNASIVDAINQAADCWGIRCLRYEIKDIHVPPRVKESMQMQVEAERRKRATVLESEGTRESAINVAEGKKQAQILASEAEKAEQINQAAGEASAVLAKAKAKAEAIRILAAALTQHNGDAAASLTVAEQYVSAFSKLAKDSNTILLPSNPGDVTSMVAQAMGVYGALTKAPVPGTPDSLSSGSSRDVQGTDASLDEELDRVKMS",–
–,+,"MPMGp800P21581: RZPD clone, NM_001622.1 (protein, UniProt P02765 19-300; P02765 341-367, looked up) Alpha-2-HS-glycoprotein chain … 1: APHGPGLIYRQPNCDDPETEEAALVAIDYINQNLPWGYKHTLNQIDEVKVWPQQPSGELFEIEIDTLETTCHVLDPTPVARCSVRQLKEHAVEGDCDFQLLKLDGKFSVVYAKCDSSPDSAEDVRKVCQDCPLLAPLNDTRVVHAAKAALAAFNAQNNGSNFQLEEISRAQLVPLPPSTYVEFTVSGTDCVAKEATEAAKCNLLAEKQYGFCKATLSEKLGGAEVAVTCMVFQTQPVSSQPQPEGANEAVPTPVVDPDAPPSPPLGAPGLPPAGSPPDSHVL Alpha-2-HS-glycoprotein chain … 2: TVVQPSVGAAAGPVVPPCPGRIRHFKV",–
–,+,"MPMGp800E08580: RZPD clone, NM_004819.1 (protein, UniProt Q92797 1-1274, looked up) Symplekin: MASGSGDSVTRRSVASQFFTQEEGPGIDGMTTSERVVDLLNQAALITNDSKITVLKQVQELIINKDPTLLDNFLDEIIAFQADKSIEVRKFVIGFIEEACKRDIELLLKLIANLNMLLRDENVNVVKKAILTMTQLYKVALQWMVKSRVISELQEACWDMVSAMAGDIILLLDSDNDGIRTHAIKFVEGLIVTLSPRMADSEIPRRQEHDISLDRIPRDHPYIQYNVLWEEGKAALEQLLKFMVHPAISSINLTTALGSLANIARQRPMFMSEVIQAYETLHANLPPTLAKSQVSSVRKNLKLHLLSVLKHPASLEFQAQITTLLVDLGTPQAEIARNMPSSKDTRKRPRDDSDSTLKKMKLEPNLGEDDEDKDLEPGPSGTSKASAQISGQSDTDITAEFLQPLLTPDNVANLVLISMVYLPEAMPASFQAIYTPVESAGTEAQIKHLARLMATQMTAAGLGPGVEQTKQCKEEPKEEKVVKTESVLIKRRLSAQGQAISVVGSLSSMSPLEEEAPQAKRRPEPIIPVTQPRLAGAGGRKKIFRLSDVLKPLTDAQVEAMKLGAVKRILRAEKAVACSGAAQVRIKILASLVTQFNSGLKAEVLSFILEDVRARLDLAFAWLYQEYNAYLAAGASGSLDKYEDCLIRLLSGLQEKPDQKDGIFTKVVLEAPLITESALEVVRKYCEDESRTYLGMSTLRDLIFKRPSRQFQYLHVLLDLSSHEKDKVRSQALLFIKRMYEKEQLREYVEKFALNYLQLLVHPNPPSVLFGADKDTEVAAPWTEETVKQCLYLYLALLPQNHKLIHELAAVYTEAIADIKRTVLRVIEQPIRGMGMNSPELLLLVENCPKGAETLVTRCLHSLTDKVPPSPELVKRVRDLYHKRLPDVRFLIPVLNGLEKKEVIQALPKLIKLNPIVVKEVFNRLLGTQHGEGNSALSPLNPGELLIALHNIDSVKCDMKSIIKATNLCFAERNVYTSEVLAVVMQQLMEQSPLPMLLMRTVIQSLTMYPRLGGFVMNILSRLIMKQVWKYPKVWEGFIKCCQRTKPQSFQVILQLPPQQLGAVFDKCPELREPLLAHVRSFTPHQQAHIPNSIMTILEASGKQEPEAKEAPAGPLEEDDLEPLTLAPAPAPRPPQDLIGLRLAQEKALKRQLEEEQKLKPGGVGAPSSSSPSPSPSARPGPPPSEEAMDFREEGPECETPGIFISMDDDSGLTEAALLDSSLEGPLPKETAAGGLTLKEERSPQTLAPVGEDAMKTPSPAAEDAREPEAKGNS",–
–,+,"MPMGp800P18577: RZPD clone, NM_004323.3 (protein, UniProt Q99933 1-345, looked up) BAG family molecular …: MAQRGGARRPRGDRERLGSRLRALRPGREPRQSEPPAQRGPPPSGRPPARSTASGHDRPTRGAAAGARRPRMKKKTRRRSTRSEELTRSEELTLSEEATWSEEATQSEEATQGEEMNRSQEVTRDEESTRSEEVTREEMAAAGLTVTVTHSNEKHDLHVTSQQGSSEPVVQDLAQVVEEVIGVPQSFQKLIFKGKSLKEMETPLSALGIQDGCRVMLIGKKNSPQEEVELKKLKHLEKSVEKIADQLEELNKELTGIQQGFLPKDLQAEALCKLDRRVKATIEQFMKILEEIDTLILPENFKDSRLKRKGLVKKVQAFLAECDTVEQNICQETERLQSTNFALAE",–
